The target in test [1] is T1, human α-synuclein protofibril (human, UniProt P37840 1-140). Briefly: inhibition ELISA. A general note: An ELISA detects its analyte on a solid surface through an enzyme-linked reagent.
In test [2] the target is T1, human α-synuclein protofibril. Briefly: SPR, Biacore 8K; ratio of KD values.
Description: (§1) Due to feasibility issues caused by the complexity of the target antigen in combination with pronounced avidity dependence of the antibodies, different assay set-ups were used to assess α-synuclein protofibril and monomer binding, respectively.
Test [3] shares this target. Briefly: inhibition ELISA; protofibril concentration as monomer equivalents.
The target is the same in test [4]. The test is described as follows: SPR, Biacore 8K; PF coated on chip, antibody injected, single cycle kinetics. For orientation: Surface plasmon resonance follows binding to a sensor surface in real time, without labels.
Description: as §1
Another test addresses T2, Aβ-protofibril (UniProt P05067 672-713).
T2 construct: also called Aβ-protofibrils
Briefly: inhibition ELISA; concentration of Aβ-protofibril varied against BAN0805 (hu47-IgG4).

Another test has as its target β-synuclein monomer (UniProt Q16143 1-134). The test is described as follows: inhibition ELISA; concentration of β-synuclein monomer varied against BAN0805 (hu47-IgG4).
The target in the next test is γ-synuclein monomer (UniProt O76070 1-127). Briefly: inhibition ELISA; concentration of γ-synuclein monomer varied against BAN0805 (hu47-IgG4).
Sequence of γ-synuclein monomer (O76070 whole entry): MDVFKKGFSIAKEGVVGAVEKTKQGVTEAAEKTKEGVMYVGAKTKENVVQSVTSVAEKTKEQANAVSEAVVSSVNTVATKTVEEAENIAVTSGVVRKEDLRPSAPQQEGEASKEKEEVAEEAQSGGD
Another test concerns the target α-synuclein monomer (human, UniProt P37840 1-140). Briefly: SPR, Biacore 8K; antibody captured by anti-human antibody, monomer injected, single cycle kinetics.

As a reminder, the IC50 is the concentration that gives 50% inhibition. As a reminder, the Kd is the equilibrium constant for the complex coming apart. A low value points to tighter binding.

Sequence of β-synuclein monomer (Q16143 whole entry): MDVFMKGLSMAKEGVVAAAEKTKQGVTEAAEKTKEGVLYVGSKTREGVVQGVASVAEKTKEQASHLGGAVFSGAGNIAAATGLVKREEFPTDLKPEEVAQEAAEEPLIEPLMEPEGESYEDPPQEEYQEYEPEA
Description for α-synuclein monomer: as §1

B1: BAN0805 (antibody, human IgG4 S228P, kappa, V domains shown)
VH: QVQLQESGPGLVKPSETLSLTCTVSGFSLTSYGVHWIRQPPGKGLEWIGVIWRGGSTDYSAAFMSRLTISKDTSKNQVSLKLSSVTAADTAVYYCAKLLRSVGGFADWGQGTMVTVSS
VL: DIVMTQSPLSLPVTPGEPASISCRSSQTIVHNNGNTYLEWYLQKPGQSPQLLIYKVSNRFSGVPDRFSGSGSGTDFTLKISRVEAEDVGVYYCFQGSHVPFTFGQGTKLEIKR
notes: Humanized variant of mAb47, human IgG4 (pXC-IgG4Pro(deltaK)) / kappa; also called hu47-IgG4
For the molecule B1, the “selectivity for α-synuclein protofibril versus monomer (IC50 monomer / IC50 PF)” value in test [1] is 910 fold. Also, the “selectivity PF vs. monomeric α-synuclein (fold)” value in test [2] was 110000 fold. In addition, the IC50 in test [3] is 2.2 nM. In addition, the figures for the dissociation constant (Kd) (in test [4]; in the test with α-synuclein monomer) were 0.0185 nM and 2190 nM, respectively. Moreover, the binding result in the test with Aβ-protofibril is “no binding”; with β-synuclein monomer, “no binding (tested: last point just above the 10000 nM tick)”; with γ-synuclein monomer, “no binding (tested: last point just above the 10000 nM tick)”.

For the origin of these results see patent US20210403542A1 (BIOARCTIC, published 2021).
